Test results taken from patent US20120172293A1 (Takeda / Millennium, published 2012).

Tests used:
[1] = biological target: human Y2 receptor (human) (UniProt P49146); assay: cell-based or functional assay
[2] = biological target: human Y2 receptor (human) (UniProt P49146); assay: RBA: displacement of [125I]-PYY from hY2R/CHO membranes

Chain of human Y2 receptor (human) (P49146 whole entry): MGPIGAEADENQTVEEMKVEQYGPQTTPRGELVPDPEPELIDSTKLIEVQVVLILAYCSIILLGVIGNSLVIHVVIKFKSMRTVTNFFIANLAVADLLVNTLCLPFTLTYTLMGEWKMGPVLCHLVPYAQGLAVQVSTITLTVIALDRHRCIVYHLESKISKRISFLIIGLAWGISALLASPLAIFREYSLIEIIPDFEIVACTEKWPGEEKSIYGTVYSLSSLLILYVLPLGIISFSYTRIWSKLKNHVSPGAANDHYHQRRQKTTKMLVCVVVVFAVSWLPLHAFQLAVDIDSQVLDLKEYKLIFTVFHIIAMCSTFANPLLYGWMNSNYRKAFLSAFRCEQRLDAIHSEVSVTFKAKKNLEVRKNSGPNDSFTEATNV

| GBA EC50 Ratio ([35S]GTPγS binding) (EC50 compound/EC50 PYY(3-36)) [1] | IC50 Ratio (IC50 compound/IC50 PYY(3-36)) [2] | Substance |
| --- | --- | --- |
| 0.7 | 0.82 | (Tetrahydro-2H-pyran-4-ylmethyl)carbamoyl-[D-Pro24, Pya(4)26, Cha27,36, Aib28,31, Lys30]-PYY(23-36) (peptide) |
| 1.9 | 0.92 | 3-Carboxypropionyl-[D-Hyp24, Iva25, Pya(4)26, Cha27,36, Leu(Me)28, Lys30, Aib31]-PYY(23-36) (peptide) |
| 0.94 | 0.78 | [(1S)-1-Carboxyethyl]carbamoyl-[D-Pro24, Pya(4)26, Cha27,36, Aib28,31, Lys30]-PYY(23-36) (peptide) |
| 1 | 0.65 | 4-Imidazolecarbonyl-[D-Hyp24, Iva25, Pya(4)26, Cha27,36, αMePhe28, Lys30, Aib31]-PYY(23-36) (peptide) |
| 1.4 | 0.82 | Ac-[D-Pro24, Har25, Pya(4)26, Cha27,36, Aib28,31, Lys30]-PYY(23-36) (peptide) |
| 1.2 | 0.33 | Ac-[D-Pro24, Pya(4)26, Cha27,36, Iva28, Lys30, Aib31]-PYY(23-36) (peptide) |
| 1.3 | 1.1 | Ac-[D-Pro24, Arg(Me)25, Pya(4)26, Cha27,36, Aib28,31, Lys30]-PYY(23-36) (peptide) |
| 3.9 | 3.8 | Ac-[D-Pro24, Pya(4)26, Ala(4Pip)27, Aib28,31, Lys30, Cha36]-PYY(23-36) later peak (peptide) |
| 2.2 | 2.8 | Ac-[D-Pro24, Cit25, Pya(4)26, Cha27,36, Aib28,31, Lys30]-PYY(23-36) (peptide) |
| 1.1 | 0.97 | Ac-[D-Pro24, Pya(4)26, Cha27,36, Aib28,31, Lys(Ac)30]-PYY(23-36) (peptide) |
| 11 | 17 | Ac-[D-Pro24, Pya(4)26, Ala(4Pip)27, Aib28,31, Lys30, Cha36]-PYY(23-36) former peak (peptide) |
| 1.4 | 0.75 | 4-Imidazolecarbonyl-[D-Hyp24, Iva25, Pya(4)26, Cha27,36, Leu(Me)28, Lys30, Aib31]-PYY(23-36) (peptide) |
| 1.2 | 1.1 | Ac-[D-Pro24, Pya(4)26, Cha27,36, Aib28,31, Arg(Me)30]-PYY(23-36) (peptide) |
| 0.79 | 0.36 | Ac-[D-Pro24, Pya(4)26, Cha27,36, Aib28,31, Har30]-PYY(23-36) (peptide) |
| 1.1 | 0.76 | 4-Imidazolecarbonyl-[D-Pro24, Pya(4)26, Cha27,36, Aib28,31, Lys30]-PYY(23-36) (peptide) |
| 0.94 | 1.3 | (2-Carboxyethyl)carbamoyl-[D-Pro24, Pya(4)26, Cha27,36, Aib28,31, Lys30]-PYY(23-36) (peptide) |
| 1.7 | 2.9 | Ac-[D-Pro24, Pya(4)26, Nal(1)27, Aib28,31, Lys30, Cha36]-PYY(23-36) (peptide) |

| GBA EC50 Ratio ([35S]GTPγS binding) (EC50 compound/EC50 PYY(3-36)) [1] | IC50 Ratio (IC50 compound/IC50 PYY(3-36)) [2] | Substance |
| --- | --- | --- |
| 1.4 | 0.96 | Ac-[D-Pro24, Pya(4)26, Cha27,36, Aib28,31, Nle30]-PYY(23-36) (peptide) |
| 0.98 | 2.3 | Ac-[D-Pro24, Abu26, Cha27,36, Aib28,31, Lys30]-PYY(23-36) (peptide) |
| 0.98 | 1 | Ac-[D-Pro24, Pya(4)26, Cha27, Aib28,31, Lys30, Phe(2Me)36]-PYY(23-36) (peptide) |
| 1.2 | 0.95 | [(1S)-1-Carboxy-2-(4-hydroxyphenyl)ethyl]carbamoyl-[D-Pro24, Pya(4)26, Cha27,36, Aib28,31, Lys30]-PYY(23-36) (peptide) |
| 0.57 | 0.89 | Morpholinocarbonyl-[D-Pro24, Pya(4)26, Cha27,36, Aib28,31, Lys30]-PYY(23-36) (peptide) |
| 0.92 | 1.3 | 4-Imidazolecarbonyl-[D-Hyp24, Iva25, Pya(4)26, Cha27,36, Aib28,31, Lys30]-PYY(23-36) (peptide) |
| 0.78 | 0.54 | 2-Methylbutanoyl-[D-Pro24, Pya(4)26, Cha27,36, Aib28,31, Lys30]-PYY(23-36) (peptide) |
| 0.61 | 0.52 | Tetrahydro-2H-pyran-4-yl-carbamoyl-[D-Pro24, Pya(4)26, Cha27,36, Aib28,31, Lys30]-PYY(23-36) (peptide) |
| 1.5 | 0.97 | Ac-[D-Hyp24, Iva25, Pya(4)26, Cha27,36, Leu(Me)28, Lys30, Aib31]-PYY(23-36) (peptide) |
| 1.6 | 1.3 | 4-Pyridinecarbonyl-[D-Hyp24, Iva25,28, Pya(4)26, Cha27,36, Lys30, Aib31]-PYY(23-36) (peptide) |
| 0.82 | 0.82 | [(1S)-1-Carboxy-3-methylbutyl]carbamoyl-[D-Pro24, Pya(4)26, Cha27,36, Aib28,31, Lys30]-PYY(23-36) (peptide) |
| 1.6 | 0.55 | Ac-[D-Pro24, Pya(4)26, Cha27,36, Aib28, Lys30, D-Iva31]-PYY(23-36) (peptide) |
| 1.6 | 1.2 | Ac-[Dap22, D-Pro24, Pya(4)26, Cha27,36, Aib28,31, Lys30]-PYY(22-36) (peptide) |
| 1.4 | 0.88 | Ac-[D-Pro24, Tyr(Me)26, Cha27,36, Aib28,31, Lys30]-PYY(23-36) (peptide) |
| 1.8 | 1.1 | Ac-[D-Pro24, Nar25, Pya(4)26, Cha27,36, Aib28,31, Lys30]-PYY(23-36) (peptide) |
| 0.65 | 0.91 | (cis-2,6-Dimethylmorpholin-4-yl)carbonyl-[D-Pro24, Pya(4)26, Cha27,36, Aib28,31, Lys30]-PYY(23-36) (peptide) |
